Source: patent US20240270846A1 (published 2024)

Target: T1, CD3 epsilon homodimer protein (UniProt P07766 23-126)
T1 construct: construct not described; homodimer as printed; also called CD3 (CD3 epsilon)
Experiment: SPR Biacore T200, CD3 epsilon homodimer immobilized; vs unaltered GLS3000;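 note: antibody variants flowed as analyte over CD3 epsilon homodimer amine-coupled to a CM4 chip, at 25 °C in HBS-EP+ running buffer, fitted with Biacore T200 Evaluation Software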

T1 sequence (P07766 23-126): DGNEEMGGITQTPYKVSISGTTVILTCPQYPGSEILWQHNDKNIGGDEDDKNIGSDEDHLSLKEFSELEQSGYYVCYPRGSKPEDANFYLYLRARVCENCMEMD

KD ratio to GLS3000 (Affinity up) | Binder
0.89 | GLS3000 R24E (Kabat) L chain altered form, one-arm antibody with CE115HA000 (antibody, human IgG1, kappa, L234A L235A, N297A, name in Kabat numbering, one-arm antibody) heavy: QVQLVESGGGVVQPGRSLRLSCAASGFTFSNAWMHWVRQAPGKGLEWVAQIKAKSNNYATYYAESVKGRFTISRDDSKNSLYLQMNSLKTEDTAVYYCRYVHYGAYYGVDAWGQGTTVTVSSASTKGPSVFPLAPSSKSTSGGTAALGCLVKDYFPEPVTVSWNSGALTSGVHTFPAVLQSSGLYSLSSVVTVPSSSLGTQTYICNVNHKPSNTKVDKKVEPKSCDKTHTCPPCPAPEAAGGPSVFLFPPKPKDTLMISRTPEVTCVVVDVSHEDPEVKFNWYVDGVEVHNAKTKPREEQYASTYRVVSVLTVLHQDWLNGKEYKCKVSNKALPAPIEKTISKAKGQPREPQVYTLPPSRCELTKNQVSLSCAVKGFYPSDIAVEWESNGQPENNYKTTPPVLDSDGSFFLVSKLTVDKSRWQQGNVFSCSVMHEALHNHYTQKSLSLSPDYKDDDDK EPKSSDKTHTCPPCPAPELLGGPSVFLFPPKPKDTLMISRTPEVTCVVVDVSHEDPEVKFNWYVDGVEVHNAKTKPREEQYNSTYRVVSVLTVLHQDWLNGKEYKCKVSNKALPAPIEKTISKAKGQPREPQVCTLPPSRDELTKNQVSLWCLVKGFYPSDIAVEWESNGQPENNYKTTPPVLDSDGSFFLYSKLTVDKSRWQQGNVFSCSVMHEALHNRYTQKSLSLSP light: DIVMTQSPLSLPVTPGEPASISCESSQSLVHSNRNTYLHWYQQKPGQAPRLLIYKVSNRFSGVPDRFSGSGSGTDFTLKISRVEAEDVGVYYCGQGTQVPYTFGQGTKLEIKRTVAAPSVFIFPPSDEQLKSGTASVVCLLNNFYPREAKVQWKVDNALQSGNSQESVTEQDSKDSTYSLSSTLTLSKADYEKHKVYACEVTHQGLSSPVTKSFNRGEC
0.34 | GLS3000 R24P (Kabat) L chain altered form, one-arm antibody with CE115HA000 (antibody, human IgG1, kappa, L234A L235A, N297A, name in Kabat numbering, one-arm antibody) heavy: QVQLVESGGGVVQPGRSLRLSCAASGFTFSNAWMHWVRQAPGKGLEWVAQIKAKSNNYATYYAESVKGRFTISRDDSKNSLYLQMNSLKTEDTAVYYCRYVHYGAYYGVDAWGQGTTVTVSSASTKGPSVFPLAPSSKSTSGGTAALGCLVKDYFPEPVTVSWNSGALTSGVHTFPAVLQSSGLYSLSSVVTVPSSSLGTQTYICNVNHKPSNTKVDKKVEPKSCDKTHTCPPCPAPEAAGGPSVFLFPPKPKDTLMISRTPEVTCVVVDVSHEDPEVKFNWYVDGVEVHNAKTKPREEQYASTYRVVSVLTVLHQDWLNGKEYKCKVSNKALPAPIEKTISKAKGQPREPQVYTLPPSRCELTKNQVSLSCAVKGFYPSDIAVEWESNGQPENNYKTTPPVLDSDGSFFLVSKLTVDKSRWQQGNVFSCSVMHEALHNHYTQKSLSLSPDYKDDDDK EPKSSDKTHTCPPCPAPELLGGPSVFLFPPKPKDTLMISRTPEVTCVVVDVSHEDPEVKFNWYVDGVEVHNAKTKPREEQYNSTYRVVSVLTVLHQDWLNGKEYKCKVSNKALPAPIEKTISKAKGQPREPQVCTLPPSRDELTKNQVSLWCLVKGFYPSDIAVEWESNGQPENNYKTTPPVLDSDGSFFLYSKLTVDKSRWQQGNVFSCSVMHEALHNRYTQKSLSLSP light: DIVMTQSPLSLPVTPGEPASISCPSSQSLVHSNRNTYLHWYQQKPGQAPRLLIYKVSNRFSGVPDRFSGSGSGTDFTLKISRVEAEDVGVYYCGQGTQVPYTFGQGTKLEIKRTVAAPSVFIFPPSDEQLKSGTASVVCLLNNFYPREAKVQWKVDNALQSGNSQESVTEQDSKDSTYSLSSTLTLSKADYEKHKVYACEVTHQGLSSPVTKSFNRGEC
0.87 | GLS3000 R24Q (Kabat) L chain altered form, one-arm antibody with CE115HA000 (antibody, human IgG1, kappa, L234A L235A, N297A, name in Kabat numbering, one-arm antibody) heavy: QVQLVESGGGVVQPGRSLRLSCAASGFTFSNAWMHWVRQAPGKGLEWVAQIKAKSNNYATYYAESVKGRFTISRDDSKNSLYLQMNSLKTEDTAVYYCRYVHYGAYYGVDAWGQGTTVTVSSASTKGPSVFPLAPSSKSTSGGTAALGCLVKDYFPEPVTVSWNSGALTSGVHTFPAVLQSSGLYSLSSVVTVPSSSLGTQTYICNVNHKPSNTKVDKKVEPKSCDKTHTCPPCPAPEAAGGPSVFLFPPKPKDTLMISRTPEVTCVVVDVSHEDPEVKFNWYVDGVEVHNAKTKPREEQYASTYRVVSVLTVLHQDWLNGKEYKCKVSNKALPAPIEKTISKAKGQPREPQVYTLPPSRCELTKNQVSLSCAVKGFYPSDIAVEWESNGQPENNYKTTPPVLDSDGSFFLVSKLTVDKSRWQQGNVFSCSVMHEALHNHYTQKSLSLSPDYKDDDDK EPKSSDKTHTCPPCPAPELLGGPSVFLFPPKPKDTLMISRTPEVTCVVVDVSHEDPEVKFNWYVDGVEVHNAKTKPREEQYNSTYRVVSVLTVLHQDWLNGKEYKCKVSNKALPAPIEKTISKAKGQPREPQVCTLPPSRDELTKNQVSLWCLVKGFYPSDIAVEWESNGQPENNYKTTPPVLDSDGSFFLYSKLTVDKSRWQQGNVFSCSVMHEALHNRYTQKSLSLSP light: DIVMTQSPLSLPVTPGEPASISCQSSQSLVHSNRNTYLHWYQQKPGQAPRLLIYKVSNRFSGVPDRFSGSGSGTDFTLKISRVEAEDVGVYYCGQGTQVPYTFGQGTKLEIKRTVAAPSVFIFPPSDEQLKSGTASVVCLLNNFYPREAKVQWKVDNALQSGNSQESVTEQDSKDSTYSLSSTLTLSKADYEKHKVYACEVTHQGLSSPVTKSFNRGEC
0.92 | GLS3000 R24G (Kabat) L chain altered form, one-arm antibody with CE115HA000 (antibody, human IgG1, kappa, L234A L235A, N297A, name in Kabat numbering, one-arm antibody) heavy: QVQLVESGGGVVQPGRSLRLSCAASGFTFSNAWMHWVRQAPGKGLEWVAQIKAKSNNYATYYAESVKGRFTISRDDSKNSLYLQMNSLKTEDTAVYYCRYVHYGAYYGVDAWGQGTTVTVSSASTKGPSVFPLAPSSKSTSGGTAALGCLVKDYFPEPVTVSWNSGALTSGVHTFPAVLQSSGLYSLSSVVTVPSSSLGTQTYICNVNHKPSNTKVDKKVEPKSCDKTHTCPPCPAPEAAGGPSVFLFPPKPKDTLMISRTPEVTCVVVDVSHEDPEVKFNWYVDGVEVHNAKTKPREEQYASTYRVVSVLTVLHQDWLNGKEYKCKVSNKALPAPIEKTISKAKGQPREPQVYTLPPSRCELTKNQVSLSCAVKGFYPSDIAVEWESNGQPENNYKTTPPVLDSDGSFFLVSKLTVDKSRWQQGNVFSCSVMHEALHNHYTQKSLSLSPDYKDDDDK EPKSSDKTHTCPPCPAPELLGGPSVFLFPPKPKDTLMISRTPEVTCVVVDVSHEDPEVKFNWYVDGVEVHNAKTKPREEQYNSTYRVVSVLTVLHQDWLNGKEYKCKVSNKALPAPIEKTISKAKGQPREPQVCTLPPSRDELTKNQVSLWCLVKGFYPSDIAVEWESNGQPENNYKTTPPVLDSDGSFFLYSKLTVDKSRWQQGNVFSCSVMHEALHNRYTQKSLSLSP light: DIVMTQSPLSLPVTPGEPASISCGSSQSLVHSNRNTYLHWYQQKPGQAPRLLIYKVSNRFSGVPDRFSGSGSGTDFTLKISRVEAEDVGVYYCGQGTQVPYTFGQGTKLEIKRTVAAPSVFIFPPSDEQLKSGTASVVCLLNNFYPREAKVQWKVDNALQSGNSQESVTEQDSKDSTYSLSSTLTLSKADYEKHKVYACEVTHQGLSSPVTKSFNRGEC
